# Assay results taken from the supplement of paper PMC12042874.
# ± gives the uncertainty stated by the source.
# Test: amyloid nucleation score (Sup35N fusion, yeast selection) (log enrichment); library NNK2; higher = more nucleation; inactive = no reads after selection
# Summary of the method: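 Three technical output replicates were used for random libraries. Psi-negative yeast expressing peptides of 20 random codons fused to Sup35N were induced with 100 μM copper sulfate for 24 hours and grown 7 days at 30°C on medium lacking adenine and uracil, and input and output plasmid inserts were Illumina-sequenced, excluding sequences with under 100 input reads. The nucleation score is the DiMSum log enrichment of output over input reads, centred on the mode score of non-aggregating sequences.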
row,Substance,amyloid nucleation score
1,VTDQVVFSEWIAADYMFDKY,0.491 ± 0.52
2,VTIYGVLSRLNDCFFRGVWD,inactive
3,VTMIPA,-0.207 ± 0.63
4,VTMKHVAGSSHDCPYAILTN,0.082 ± 1
5,VTNCLTIWAFMGSRRCWKAP,3.62 ± 0.11
6,VTRDFSRGIGDWLICGDILE,-1.81 ± 0.49
7,VTTNWGSSVRNQAEGYRPSL,-0.067 ± 0.42
8,VTVSVGSLYTNFATPKDRMV,0.357 ± 0.36
9,VTVVWESDSFRYVYWLNRLE,0.926 ± 0.48
10,VVAGEYGWTWFFKESLGLGM,-0.332 ± 0.49
11,VVDCKGVLLAFSNRIFGWTT,-0.064 ± 0.76
12,VVDGYYGFWVVSQEDISIYP,-0.094 ± 0.54
13,VVENRALLYGGFVR,0.135 ± 0.63
14,VVHDNW,0.29 ± 0.22
15,VVLQTKHSLAISGQQLIPMA,0.32 ± 0.32
16,VVNLDSF,-1.95 ± 0.62
17,VVNLETVCIYRKLSYKFQVR,inactive
18,VVNRYRNTFFCVYWTSAGVL,6.65 ± 0.073
19,VVPFIKTRCNPV,-0.829 ± 0.33
20,VVRPVTLRFCTKGGMYSSVG,0.407 ± 0.32
21,VVSERRAFVRGVFDWIITLD,-0.02 ± 0.55
22,VVSFNWLEYVSNMSQMNWDG,-0.015 ± 0.63
23,VVTKQMSRFS,0.701 ± 0.51
24,VVTRNRISRAGGLRS,0.616 ± 0.39
25,VVVRGVQAGCGKPPVSRLRI,0.838 ± 0.23

row,Substance,amyloid nucleation score
1,VVYASRLC,0.681 ± 0.35
2,VVYDHILVAKFRAFVLGPFL,4.07 ± 0.054
3,VVYTRIEVILSGDLSPREMV,0.763 ± 0.24
4,VWEIEGEPPWVQSVCSWDPR,3.85 ± 0.057
5,VWGHWPSRFSQQSRCN,0.185 ± 0.5
6,VWLCCLCWVQMDLANVNLWL,8.315 ± 0.053
7,VWLEACGFSRIFSLQFLVSV,-0.476 ± 0.76
8,VWRNRSGNITSVTFL,5.23 ± 0.069
9,VWSSLGRECPSSCIVFLSVE,-0.464 ± 0.78
10,VWVKVLYYSRDICTLWSPGW,-0.059 ± 0.5
11,VYAIHGTRYCELGAPIDKLY,0.852 ± 0.29
12,VYAMVGVSLACGCVSWKGHV,4.75 ± 0.086
13,VYCEDGY,0.641 ± 0.36
14,VYEGSLCLAYERLTGMGFIK,-0.382 ± 0.29
15,VYFAKRLFVLFIM,inactive
16,VYFELVPVGTYL,-0.214 ± 1
17,VYLCARKGM,-0.287 ± 0.79
18,VYLGSGFAARRSSGEQRRIS,0.536 ± 0.66
19,VYLYGPQLLSRWWIQLCCQM,2.96 ± 0.15
20,VYRMPGVSWKYVS,0.501 ± 0.8
21,VYRNNL,-1.84 ± 1.1
22,VYYSGALFQNVLYLLSFMVV,-0.501 ± 1.1
23,WAIRPSRYYITAYAVELHCD,9.114 ± 0.074
24,WASLGYTCFGKVRRWAPGTH,0.371 ± 0.28
25,WAWVYGCDGYLIGSSRLANG,0.368 ± 0.25

row,Substance,amyloid nucleation score
1,WCCKVTGHFPDTEQYYFPPP,inactive
2,WCKQGVGCDLGAMVELSKGG,1.22 ± 0.28
3,WCSCQPSFSKKHGEFYNLFL,9.215 ± 0.032
4,WCSIDLSHFVCYNLGYMR,7.395 ± 0.052
5,WDPLSSCKGACDM,0.717 ± 0.43
6,WDTHLYQDMGCFAHLFIRYF,inactive
7,WECLGTCDVGSCLTWRIGGR,2.82 ± 0.18
8,WELKAHVDV,0.737 ± 0.54
9,WEYTG,0.242 ± 0.74
10,WFDWLVYSGLDHGRFIEVLK,-0.432 ± 0.74
11,WFDYGR,inactive
12,WFGFGESAHLYRLREEDFHD,-0.206 ± 0.79
13,WFISGISKLMRHFALKYASM,2.5 ± 0.15
14,WFNFVPYHADYGNFL,0.053 ± 1.1
15,WFPALEYKCAQGQDRQQRPV,0.351 ± 0.74
16,WFTYQVAYVWYGRNFDTSPA,7.961 ± 0.067
17,WGETVLYSDY,-1.01 ± 1
18,WGHFQEDARFTSYGVGSVLG,-0.263 ± 1.1
19,WGLFPLQCHLVYRLLLSFHK,inactive
20,WGSMYRYFVDGSWFVVDISP,-0.26 ± 0.27
21,WGVCSQGYNVRIRVVARQKF,inactive
22,WHDIQALTSMDVGRYLGDAI,-0.696 ± 0.26
23,WHGKVGRTAWCLGMLFYDVR,1.02 ± 0.2
24,WHGRWSTNRRRPPNKMCRLV,1.06 ± 0.28
25,WHKFGNNRANEGRYIMHLMH,-0.282 ± 0.48

row,Substance,amyloid nucleation score
1,WHRVFKGLS,0.658 ± 0.26
2,WHSHMYNWWEQ,1.09 ± 0.28
3,WICFYDYWQGFSHNDCREME,-0.97 ± 0.36
4,WIDLNRRRREAL,-0.125 ± 0.34
5,WIIIFSKFV,-0.695 ± 0.79
6,WINVGCVCLMVMHILPI,5.4 ± 0.073
7,WISIRSTNRRKLRHRSYATV,0.56 ± 0.56
8,WIVVSSIDSFFCVSSSPQFR,inactive
9,WKGSEELRSGMAYVDGTGGE,1.32 ± 0.39
10,WKIDWTNVNPFVRPVGTTNG,0.917 ± 0.33
11,WKSLTGYIRLIFRNFWTSHD,inactive
12,WLGTRWRRGWGRLLKREGIL,1.79 ± 0.13
13,WLLPTTSLLSSQPAQAFRDH,-0.363 ± 0.49
14,WLPMGRAGLCYYGEFDNSCW,inactive
15,WLPNRRNVPYAVESVCS,0.971 ± 0.33
16,WLTYRCSVYYFYVEYWKSVY,0.256 ± 0.74
17,WLVGHKLKYA,0.113 ± 0.22
18,WLVIPWRCSNDRHIWLWELQ,1.55 ± 0.53
19,WLYNMTRLHIPFYARNWLNS,0.352 ± 0.37
20,WNKWSGLVLYTLGKLSY,-0.648 ± 0.39
21,WNLCGCAFDQLYKGVRSVNG,3.84 ± 0.066
22,WNSVIFCR,-0.704 ± 0.37
23,WNTLKVAGSVGGTAVDQVAV,1.33 ± 0.34
24,WNWRVNDGVPGMTYVKAYSS,-0.672 ± 0.42
25,WPGRRRYAMCVMTKRRGGLE,0.422 ± 0.29

row,Substance,amyloid nucleation score
1,WPVCTSIYMVGWWSVHTYHG,0.705 ± 0.8
2,WQVYQFSCRAEGEDL,2.48 ± 0.12
3,WRDTC,-0.086 ± 0.49
4,WRELKSQVDWRLDILSGSYR,0.971 ± 0.26
5,WRFWLPAKWISRGSFIVYWI,-0.717 ± 0.32
6,WRGLGVLYVSCVDSRVSSI,-1.73 ± 0.75
7,WRKCKLFFTLYHLHTVELWI,-0.826 ± 0.49
8,WRLNEDHNRYDLIPGVRGLG,0.519 ± 0.56
9,WRMREWKWVEYCRHSVKDAL,1.54 ± 0.31
10,WRNCYVYRTVLR,2.36 ± 0.07
11,WRQSVQ,1.12 ± 0.33
12,WRSYDMYSSWSIYVMAMTIS,-1.11 ± 0.53
13,WRVFSYYHISDRF,-0.19 ± 1.1
14,WSEHQGQPNRERWWSAAGEG,0.984 ± 0.32
15,WSGLFVKKNVVFRVRNGVT,-0.089 ± 1.1
16,WSHVYSV,-0.124 ± 0.76
17,WSYGLLWPSVKLIPACPPAS,0.244 ± 0.42
18,WSYGSNLPWLDKPNWHHETW,1.2 ± 0.47
19,WTFEFLIRVLEWRSVMFFAG,inactive
20,WTKATPH,0.12 ± 0.29
21,WTLTGHVRNLKLQVCMSVY,0.789 ± 0.6
22,WVFKCVSNKERNYISCACSM,4.79 ± 0.063
23,WVKENI,-0.234 ± 0.65
24,WVNYFEGLMIPVSARN,-1.16 ± 0.76
25,WVSGLPHNYNSSFSTAINFS,0.907 ± 0.3

row,Substance,amyloid nucleation score
1,WWKQWRYTGYLLLSHLSNRS,-0.087 ± 0.42
2,WWLMWS,0.691 ± 0.53
3,WWQGI,-0.168 ± 1.1
4,WWSSDS,1.73 ± 0.078
5,WWVPCSLYWYSAEGPGLARA,0.007 ± 0.31
6,WWYRLLWDKSCL,-1.06 ± 0.49
7,WYAHGLISVCFVCAGLESLG,-0.251 ± 0.76
8,WYERVWLAWSR,0.66 ± 0.57
9,WYNILLHNSAAEYLTY,-0.296 ± 0.34
10,WYSIIREEAALSYCSSHYKN,2.49 ± 0.15
11,WYSYRL,-0.11 ± 0.46
12,YAFKRECWCHYHHHCVQMFW,0.49 ± 0.33
13,YAFQW,0.152 ± 0.77
14,YAGTH,-1.72 ± 0.48
15,YAHRTSTA,0.342 ± 0.62
16,YAPRCNPNRNLLNMT,4.47 ± 0.058
17,YATKFN,0.058 ± 0.79
18,YCFSVYKGVGIGKKCGYLSS,inactive
19,YCGKTIQCSRRAPTAEDLGM,2.76 ± 0.12
20,YCGLFKGYVYRL,-1.43 ± 0.55
21,YCKGSS,-0.46 ± 1
22,YCKRLKQAMPHY,-0.337 ± 0.63
23,YCLVTRLHR,0.185 ± 0.8
24,YCMASLSSLNLVRHWDDESS,-1.01 ± 1.1
25,YCRHGGNRASL,0.783 ± 0.53

row,Substance,amyloid nucleation score
1,YCTNFYVEAGAIGS,-0.682 ± 0.42
2,YCTPCLW,0.452 ± 0.66
3,YCTSDG,0.559 ± 0.8
4,YCVTTVGARCLVKFHHLDSG,2.11 ± 0.15
5,YCYEPLTC,0.508 ± 0.49
6,YDEKMRVHDKYKTQPLERGR,4.37 ± 0.1
7,YDLLGHKAVFEGERVNW,0.003 ± 0.4
8,YEDSGRRKLLNGP,-0.381 ± 1.1
9,YFIAASYCDLTYLKTIDWTG,2.76 ± 0.067
10,YFKMSFCSFWL,1.91 ± 0.091
11,YFMTKETLHC,-1.64 ± 0.54
12,YFNSSVLILVVWLLY,inactive
13,YFRDRSFKKIILLPNWFMNT,inactive
14,YFRSCDKCGAYEANHEFKTT,inactive
15,YFRVFFFLMSIYTDKN,inactive
16,YFRYMLW,4.16 ± 0.1
17,YFSFFVSKVTGGWSCHVESA,-0.004 ± 0.34
18,YFWTFTSWQTTGRCHSP,0.521 ± 0.17
19,YGCLNYSRWRTSAGMDTNNG,-0.794 ± 0.63
20,YGDGGDIC,-0.612 ± 0.35
21,YGEELE,inactive
22,YGFLCRL,inactive
23,YGKGDLGRCSLDTSTTLSDW,0.252 ± 0.65
24,YGLDRIFVSGSMNATMIKHN,inactive
